System: Escherichia coli TOP10
Assay: shrunken log2 fold change of peptide-encoding DNA abundance (4.5 h post-induction vs induction); higher = less antimicrobial activity (less host growth inhibition)
Conditions: time post-induction: 4.5 h; library: site-saturation at positions 5, 18, 19, 20
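Note: peptides expressed intracellularly from a pBAD plasmid library in pooled LB shake-flask culture, induced with 0.3% L-arabinose, DNA abundance read by NGS, three biological replicates, DESeq2 with apeglm shrinkage.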

Row | Sequence | shrunken log2 fold change
1 | RRIRPRPPRLPRPRPRPWMIPRP | -0.334
2 | RRIRNRPPRLPRPRPRPVTCPRP | -0.45
3 | RRIRGRPPRLPRPRPRPACEPRP | 0.833
4 | RRIRKRPPRLPRPRPRPCQMPRP | -0.0362
5 | RRIRKRPPRLPRPRPRPFCIPRP | 0.0646
6 | RRIRDRPPRLPRPRPRPSWDPRP | 0.199
7 | RRIRLRPPRLPRPRPRPIDSPRP | -0.0384
8 | RRIRLRPPRLPRPRPRPTMLPRP | -0.335
9 | RRIRERPPRLPRPRPRPASWPRP | 0.0747
10 | RRIRSRPPRLPRPRPRPTVHPRP | -0.0989
11 | RRIRQRPPRLPRPRPRPVEKPRP | 0.0119
12 | RRIRFRPPRLPRPRPRPVEAPRP | -0.103
13 | RRIRQRPPRLPRPRPRPSGIPRP | 0.144
14 | RRIRSRPPRLPRPRPRPIPLPRP | -0.115
15 | RRIRPRPPRLPRPRPRPNFFPRP | 0.323
16 | RRIRTRPPRLPRPRPRPFKQPRP | 0.0538
17 | RRIRKRPPRLPRPRPRPEQMPRP | -0.000598
18 | RRIRDRPPRLPRPRPRPIWGPRP | -0.0681
19 | RRIRSRPPRLPRPRPRPQKCPRP | 0.0984
20 | RRIRPRPPRLPRPRPRPCQWPRP | 0.205
21 | RRIRIRPPRLPRPRPRPKWMPRP | -0.178
22 | RRIRDRPPRLPRPRPRPRDHPRP | 0.0411
23 | RRIRKRPPRLPRPRPRPVHWPRP | 0.621
24 | RRIRMRPPRLPRPRPRPAKLPRP | 0.441
25 | RRIRERPPRLPRPRPRPKQRPRP | 0.235

Row | Sequence | shrunken log2 fold change
26 | RRIRYRPPRLPRPRPRPCALPRP | -0.671
27 | RRIRTRPPRLPRPRPRPQIEPRP | -0.107
28 | RRIRPRPPRLPRPRPRPYLFPRP | -0.434
29 | RRIRPRPPRLPRPRPRPCYKPRP | -1.32
30 | RRIRMRPPRLPRPRPRPGHEPRP | 0.086
31 | RRIRVRPPRLPRPRPRPRQLPRP | 0.276
32 | RRIRWRPPRLPRPRPRPVWWPRP | 0.729
33 | RRIRVRPPRLPRPRPRPQFPPRP | -0.28
34 | RRIRDRPPRLPRPRPRPCLRPRP | -0.188
35 | RRIRIRPPRLPRPRPRPMQDPRP | -0.223
36 | RRIRYRPPRLPRPRPRPTYKPRP | -1.17
37 | RRIRRRPPRLPRPRPRPHYEPRP | -0.508
38 | RRIRHRPPRLPRPRPRPMQLPRP | -0.366
39 | RRIRKRPPRLPRPRPRPHQQPRP | -0.0506
40 | RRIRHRPPRLPRPRPRPHKAPRP | -0.31
41 | RRIRRRPPRLPRPRPRPVASPRP | 0.0932
42 | RRIRHRPPRLPRPRPRPSLLPRP | -0.287
43 | RRIRRRPPRLPRPRPRPVWYPRP | 0.18
44 | RRIRDRPPRLPRPRPRPSPKPRP | -0.00809
45 | RRIRPRPPRLPRPRPRPIPEPRP | 1.27
46 | RRIRVRPPRLPRPRPRPRAEPRP | 0.677
47 | RRIRCRPPRLPRPRPRPWAVPRP | 0.0183
48 | RRIRRRPPRLPRPRPRPDVGPRP | -0.042
49 | RRIRCRPPRLPRPRPRPKKCPRP | -0.186
50 | RRIRYRPPRLPRPRPRPIMNPRP | -0.123

Row | Sequence | shrunken log2 fold change
51 | RRIRARPPRLPRPRPRPHPIPRP | 0.286
52 | RRIRQRPPRLPRPRPRPGDKPRP | -0.187
53 | RRIRFRPPRLPRPRPRPAETPRP | 0.0238
54 | RRIRCRPPRLPRPRPRPETQPRP | 0.0409
55 | RRIRGRPPRLPRPRPRPVHNPRP | 0.259
56 | RRIRARPPRLPRPRPRPMSLPRP | -0.229
57 | RRIRQRPPRLPRPRPRPLTSPRP | -0.254
58 | RRIRGRPPRLPRPRPRPYTVPRP | 0.0498
59 | RRIRCRPPRLPRPRPRPVCDPRP | -0.245
60 | RRIRDRPPRLPRPRPRPKRTPRP | 0.143
61 | RRIRWRPPRLPRPRPRPVWVPRP | 0.257
62 | RRIRIRPPRLPRPRPRPYNSPRP | -0.0199
63 | RRIRSRPPRLPRPRPRPVEEPRP | 0.0884
64 | RRIRLRPPRLPRPRPRPRDSPRP | -0.00311
65 | RRIRPRPPRLPRPRPRPSTWPRP | 0.0689
66 | RRIRYRPPRLPRPRPRPLILPRP | -0.767
67 | RRIRERPPRLPRPRPRPMTYPRP | -0.121
68 | RRIRIRPPRLPRPRPRPYPNPRP | -0.072
69 | RRIRMRPPRLPRPRPRPFVPPRP | -0.375
70 | RRIRWRPPRLPRPRPRPNEDPRP | 0.211
71 | RRIRLRPPRLPRPRPRPAEDPRP | -0.00769
72 | RRIRGRPPRLPRPRPRPRTCPRP | 0.592
73 | RRIRYRPPRLPRPRPRPMVAPRP | 0.133
74 | RRIRFRPPRLPRPRPRPGMPPRP | -0.0207
75 | RRIRHRPPRLPRPRPRPMHLPRP | 0.0317

Row | Sequence | shrunken log2 fold change
76 | RRIRARPPRLPRPRPRPEKNPRP | 0.538
77 | RRIRLRPPRLPRPRPRPHGAPRP | 0.0606
78 | RRIRHRPPRLPRPRPRPQKQPRP | 0.219
79 | RRIRCRPPRLPRPRPRPYQDPRP | -0.725
80 | RRIRERPPRLPRPRPRPQRRPRP | -0.0022
81 | RRIRNRPPRLPRPRPRPKFPPRP | -0.0759
82 | RRIRNRPPRLPRPRPRPFCHPRP | -0.476
83 | RRIRIRPPRLPRPRPRPAGNPRP | -0.0516
84 | RRIRHRPPRLPRPRPRPYIAPRP | -0.496
85 | RRIRCRPPRLPRPRPRPLEVPRP | -0.174
86 | RRIRVRPPRLPRPRPRPCDGPRP | 0.0303
87 | RRIRQRPPRLPRPRPRPYSVPRP | -0.00968
88 | RRIRPRPPRLPRPRPRPINGPRP | -0.482
89 | RRIRMRPPRLPRPRPRPDAWPRP | 2.59
90 | RRIRTRPPRLPRPRPRPRRIPRP | -0.16
91 | RRIRPRPPRLPRPRPRPKTTPRP | 0.507
92 | RRIRKRPPRLPRPRPRPLPEPRP | 0.351
93 | RRIRYRPPRLPRPRPRPNYFPRP | -1.69
94 | RRIRDRPPRLPRPRPRPNSMPRP | 0.0952
95 | RRIRFRPPRLPRPRPRPVKQPRP | -0.0303
96 | RRIRLRPPRLPRPRPRPVNRPRP | 0.199
97 | RRIRRRPPRLPRPRPRPQYKPRP | -0.401
98 | RRIRLRPPRLPRPRPRPWRPPRP | 0.105
99 | RRIRNRPPRLPRPRPRPEFQPRP | -0.00325
100 | RRIRTRPPRLPRPRPRPKYAPRP | -0.495

Row | Sequence | shrunken log2 fold change
101 | RRIRNRPPRLPRPRPRPKPMPRP | 0.375
102 | RRIRCRPPRLPRPRPRPGTCPRP | -0.143
103 | RRIRDRPPRLPRPRPRPNQMPRP | -0.0987
104 | RRIRGRPPRLPRPRPRPAFHPRP | 0.209
105 | RRIRERPPRLPRPRPRPWSTPRP | -0.237
106 | RRIRNRPPRLPRPRPRPEKHPRP | -0.287
107 | RRIRVRPPRLPRPRPRPACYPRP | -0.0764
108 | RRIRIRPPRLPRPRPRPCMEPRP | -0.799
109 | RRIRYRPPRLPRPRPRPCSEPRP | -0.067
110 | RRIRERPPRLPRPRPRPKWLPRP | 0.226
111 | RRIRCRPPRLPRPRPRPGATPRP | 0.512
112 | RRIRFRPPRLPRPRPRPHYLPRP | -0.217
113 | RRIRERPPRLPRPRPRPPSIPRP | -0.0171
114 | RRIRGRPPRLPRPRPRPRPAPRP | 1.07
115 | RRIRRRPPRLPRPRPRPTYYPRP | -0.0395
116 | RRIRQRPPRLPRPRPRPTNAPRP | -0.309
117 | RRIRLRPPRLPRPRPRPWMVPRP | -0.263
118 | RRIRCRPPRLPRPRPRPSVLPRP | 0.0648
119 | RRIRRRPPRLPRPRPRPCSPPRP | -0.125
120 | RRIRPRPPRLPRPRPRPNYYPRP | -0.468
121 | RRIRARPPRLPRPRPRPWMCPRP | -0.12
122 | RRIRIRPPRLPRPRPRPHYNPRP | -1.03
123 | RRIRVRPPRLPRPRPRPPPIPRP | 0.59
124 | RRIRTRPPRLPRPRPRPIEPPRP | -0.0864
125 | RRIRVRPPRLPRPRPRPYWSPRP | 0.000469

Row | Sequence | shrunken log2 fold change
126 | RRIRTRPPRLPRPRPRPRCLPRP | -0.0645
127 | RRIRWRPPRLPRPRPRPPLWPRP | 0.558
128 | RRIRPRPPRLPRPRPRPLSTPRP | -0.0907
129 | RRIRSRPPRLPRPRPRPFPGPRP | 0.0161
130 | RRIRDRPPRLPRPRPRPWETPRP | 0.192
131 | RRIRARPPRLPRPRPRPILDPRP | 0.229
132 | RRIRPRPPRLPRPRPRPCQPPRP | -0.0774
133 | RRIRIRPPRLPRPRPRPVSFPRP | 0.00232
134 | RRIRKRPPRLPRPRPRPITEPRP | -0.147
135 | RRIRWRPPRLPRPRPRPDSSPRP | -0.238
136 | RRIRDRPPRLPRPRPRPVLCPRP | 0.28
137 | RRIRDRPPRLPRPRPRPFFAPRP | 0.412
138 | RRIRYRPPRLPRPRPRPELNPRP | -0.395
139 | RRIRHRPPRLPRPRPRPHFPPRP | -0.324
140 | RRIRGRPPRLPRPRPRPAYHPRP | -0.141
141 | RRIRMRPPRLPRPRPRPRPIPRP | 0.754
142 | RRIRPRPPRLPRPRPRPLCHPRP | -0.139
143 | RRIRPRPPRLPRPRPRPIGIPRP | 0.208
144 | RRIRARPPRLPRPRPRPALAPRP | 0.554
145 | RRIRVRPPRLPRPRPRPYYPPRP | -0.414
146 | RRIRPRPPRLPRPRPRPRLQPRP | 0.176
147 | RRIRFRPPRLPRPRPRPACKPRP | -0.0419
148 | RRIRQRPPRLPRPRPRPICYPRP | 0.0933
149 | RRIRHRPPRLPRPRPRPCNFPRP | -0.74
150 | RRIRPRPPRLPRPRPRPFLRPRP | -0.327

Source: the supplement of paper PMC9112550, “Optimization of the antimicrobial peptide Bac7 by deep mutational scanning” (BMC Biology, 2022)
